Assay: soluble fraction after stress (log2 fold change); higher = more stays soluble; pooled small domains, quantitative proteomics
Conditions: stress: 75 degC
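Also: 20 min heating vs room temperature control held 20 min.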

Point of comparison: “HMSAERFDFRIGPELAGKRFDQALAEALPQFSRSRLSTWIKDGRATLNGATMRPKDSVHAGDTVVVNAE”, “soluble fraction (log2)” value -0.186. Against it:
- HMRVEEVGYGEFLQMAEERDLAEVQVTDTEIIFSDKDTPPNYYKTGRMDDPFLVDRLYSAGIRDFGE — within 0.2 log units, -0.136
- HMRVESVGDRIRRLRKSLGLTQVKLAQMLGIKAPSVVQWESDKTNLSGENLLNAAKLFGVTPDYILYGG — within 0.2 log units, -0.197
- HMRVLEYTADGSRLDVLLSQDGVLSRSRAAELIKGGAVTVDGRAEGKPSAKPAPGALVRVEVPE — higher, 0.0615
- HMRVVGRNHYDDADLAHIRSVIQLEARPLNVSRIARTLANEYPKHTYWSYLSFLQKNLRDRPDLF — lower, -1.96
- HMRVVPEILERAVAVFEALGVDRLPSSTLADRLGYDSPEALADVLRPLGVRPKKYRDGKSTARGYLAADLG — lower, -0.526
- HMRYEESVTLGERLLNQSLVALKADNIDDALWERFLREEAGEKSRQEILSDIGLGKRLPVVVAKRLLAPS — within 0.2 log units, -0.115
- HMRYPLPYAFARSQQLLLEETDDGRYTLWMSSHPARSAVGEVSRKYGVQTFEVLADGPLAQRISAAYAQ — lower, -0.983
- HMRYTAAEMAKKLDISRSYLYYLKEAGVVEIEKNENGKPIWTESVYNQLFEYIKKNHRTEEADNTQ — lower, -0.805
- HMSAAIGEAVIATDEINVRSGPGLSHEIVSVVSRNESYPILEERGDWVQIQLNGGQKGWVVSWLIKKKS — lower, -0.665
- HMSAAMTESVLDGIPGLGATRKAALLAHFGSVRKLRAATSEQVREVPGIGPRLAETILATLHEP — lower, -0.52
- HMSAATGIINTDNVNIRSGPATTYDAVGRLNQGSSVEILSSRNDWYQIQANSLKGWVRNDLLNVQK — within 0.2 log units, -0.00758
- HMSADDLVSRTQAIVAELKDLEGPLLPILHSVQEAFGHVPDEVKPVIAEALNLSRAEVHGVVSFYHDFRAH — within 0.2 log units, -0.126
- HMSADIGAEKAKTIALNHAGVSASNAVFLHAKLDYDDGRRTYEVEFYSGSKEYDYEIDAATGEILSYDFD — lower, -0.929
- HMSAEAYLSFVKKENLRAAVVNYENNKEWLKDVPHERLLDLAVFAKVDMGEPGMSMKFNNWLLSR — lower, -0.934
- HMSAEKDGEWLTLTEAAKHLQVSPHVIRRLIQTGALPAEQVMRGAPHQIRAADLDTDRVKTMIAR — higher, 0.133
- HMSAEKPVKSELFYKSMLNSFEQAVRFMIANGILEDFKSRIVAINNETNHQNWFNKQEFNAIIERF — lower, -1.49
- HMSAEVEVPDVVGRQVALAVQLIETKKLRVNVAETYDAKVPPGQVISQSPEAGMKVKEERVITIYVSR — lower, -1.36
- HMSAGISVADVTNRTYDEGYNTLTAQHLLVNKVYEANETIPLDTIIRTDPVAGTKVPDNTSITVYVSSGK — higher, 0.382
- HMSAGPQGRTPREDELTVGTKVYVSRVGASGVVSSDVSRGKVVVQVGALRLTAAVSELLLLDG — lower, -1.21
- HMSAGYTYQNYQQDLKSGNVQNIHIYLSEEMYSGNVKVIYKNNKSVTFTVTDVTIAEAEARQVGISPIIYE — lower, -2.38
- HMSAHDLQVVLRWIGTDEPMTDQRYRITTEDGRTFEGRTDDAGLTERVASTIPFGRYSIEALD — within 0.2 log units, -0.278
- HMSAIEIDAEKILNYLTDRGGKMPYGDTTAPEVIKDKFNISKAAFKRALGFLLRSNKIEQIDGWTYI — lower, -0.433
- HMSAIKSVTTQLDNTKLRTGPDVSYQYTQSYPANTKLTYINKSGTWYQVKDADGNTGYVASWVVTPSE — higher, 0.586
- HMSALIGAHTLERIDSRDFEGVVMAWLPKRDGYDSLYKIYHIEDGDFEELDDREVQAAISLFIEGT — within 0.2 log units, -0.381
- HMSAPAMTLDSIRSLLNDRDPWVVTQTVEWLVGLGPQVKTILETLTLESSDAARQAQNALDRINVRNYP — lower, -0.796
- HMSAPNPGQMHSWTDTQGRTLQATFIKADATTVTLNWNGRIVPIPLANLNAASQKLARELASAS — lower, -0.443
- HMSAPRRGETTAASLNLRAGPATDADILAQLPERTPLRVLQEDGEWLRVETHGNEGFVHRQFVAIPGDEP — higher, 0.0338
- HMSARRHAVKHLDANQLQTRVARMLSEFGLTAKVSKDPNSNALIIDGAPEAQRIAAQLITTIDKE — higher, 0.0709
- HMSASSDATRQRVLRAAEQLFGAKGVENVSLREMTTLAGVNLAAVNYHFGSKDALAEAVFEALSER — higher, 0.253
- HMSASSEALKTAVRKVLLNNRMTQDRMARDAGLSGSALSQWLHGKYQGDVPALEGRLAAWLADTQAS — higher, 0.0606
- HMSASSTAPGSVTLRGAILTAWTAAGGERSKMGLPVGYEVRQADGTVTQTFEKGRISVSPTGTATI — higher, 0.0449
- HMSAVNLNDDEKAVYKSIKSGIRSLDELSLRTGMKIYELMAITVSLEMKGLVTKSPDGTLDAT — lower, -0.743
- HMSDAKKRAFSKDEILYSLKNRPFTSFDIESLFDDESKKTFIGLLDKGEISEKKVAGTIFYYLR — lower, -0.817
- HMSDEEAISKLPGVGPAILEKLKEAGYNDIMTIAVDSPKNLAELAEIGEPTAAKIIAAAKKAAD — higher, 0.113
- HMSDIDIDVENDRAALAIAGGKLNHLVGARGEVLDALQELTRLAVQTSLGERSRLMLDIDNFRSD — higher, 0.185
- HMSDIHARIAAALAALTSPEKIHDLVVDDDGKVSFTFHLTREDPATLVRDARKAVQAVDGVRDVKVNVVDP — higher, 0.134
- HMSDKEDIDKYLLTYGDLLFNRTNSSEWVGKTAIYRGEVSAIYAGYLIRIRSFLDAEYLNSVMNSKYA — higher, 0.1
- HMSDKTSLTDDDKALINSMLPDYDKYPSVAKLQAVEIAKSSSKMATLLMLDERYNETVSEALE — higher, 0.152
- HMSDLGEIEKIVDEVLAENITKVQEYKDGKKGLMGMFMGQIMKKSGGKADPKIANQLLTEKL — higher, 0.11
- HMSDNHYLLEIFLADLKSDEKFIRELAIFQLHHHIESDKVRAELKAAAETESDPYLKGMIESLLSSTS — lower, -1.53
- HMSDNYYSILGIETDATTDMIKRAYRRLSLELHPDRTKDNPILTEKYKKVNEAYGVLNDNDRKHIYDLQNI — within 0.2 log units, -0.109
- HMSDPELAIPRVVGLSGNDAQAALVKAGFSAVTVVTVKNSEVTSEQVTHVVPAEGAKAKASTPVTVVVSSS — within 0.2 log units, -0.205
- HMSDRQLKRQANILYTTRKLASKVGYDGLTMRGLAEASEVSPKTLYNLFSSKDELLAAALEDLVGIV — higher, 0.0601
- HMSDTFTITTESGRIDKIITAHETTHTRSQVQKWLQDGLVTVNGNPVKANFKVTAGDVVTVTIPEVK — higher, 0.0601
- HMSDTMTVTNVKYAIYLRSTPSEASDANIIMEIPVGSKVTYLDTPNNTFYKISYGGTVGYSKQIYLTF — lower, -3.69
- HMSDVLPEAILERRLVKKGNRAVPQVLIKWTKLPATSATWEDFYVLQQRFPTALAWGQAPSPGGQM — lower, -0.462
- HMSDVTPDVVRALRKRLKLTQVQFGEIFGMTSKKVSAWEHGKAEPTEEQKQKIQSLLKENNEQ — within 0.2 log units, -0.146
- HMSEATTVNYKYAVTISDLRIRKGPGTNYGSVGYTGKGVFTIVAEKGGWGKLKSGAGWISLNSKYGHKVS — lower, -2.03
- HMSEEAMVSNFRQQEILELARKDGKVTVDGLAELYDVTVQTIRRDLSDLADSGRLKRVHGGAVVPS — higher, 0.162
- HMSEFGENLKKLRTARDLTQQELGAKVGLSKAVVSKYENGLGYPTFDVLIRIAAYFGVTTDYLLGV — lower, -2.81
- HMSEFSDRFRLLKDESGATLKELSEQLDITVPNLSYYMKGREPSYDILIKIADYFGVTTDWLIGRTDER — lower, -1.18
- HMSEILQLINKIDKKLEKGYTFANISRNHYEKIYKEEILNLYKTSKLKGEAEDSIKEVLESLLGDLRKP — lower, -0.833
- HMSEISAEAGKRIRYFRKSRSMTLEELAAVIHKSKATLSKYETGEISIDLDTLYDLAVALQVRAEQLLPAS — lower, -4.35
- HMSEITMMQMEIPEGHNWENRLVKDVSMPTGSLAVMIKRHGETLIPGGDTRILAGDTIVLSVPAYESG — within 0.2 log units, -0.112
- HMSEIYVDDINRKILYLLSQGIKTKSLLEHIPLSMSGIEKRKKQLKMLFSVEDGKDETLLEMAKEKGF — lower, -2
- HMSEKAQSENEDLIKILALLIHAAKIDENYSEKEKKLIISFAEMSSNKKLDREQINSLVDKAEQYEK — lower, -0.532
- HMSEKLLTLNEISEKLRVSRHTVQAWVSPSSPNHRPEFSSLARHAGRKTVFLESDVDAWLAQRR — lower, -1.07
- HMSEKYPPIDWNNIKTGQSVLIKDINQVVSLTKLPDSKGFAEVQMGLIKTKIKAEKLAATDKKPNK — within 0.2 log units, -0.326
- HMSELDSYIGARLRMRRLMLGMSQEALGEKLSLTFQQIQKYEKGTNRVSASRLYELAQVLDVPVQFFFDGA — lower, -2.98
- HMSENDTILAKFASIINNKSLELVIFPDTAYLKGQVSTPEDKARAETVAQSLLGSKPLISLIEFE — lower, -0.386
- HMSENPLTSREIEIVQLLANGKTTKSIAEELHLSNGTIRNYVSIVLDKLNVSNRIEAIRKALDKGWL — lower, -1.81
- HMSEPQEISYSDFIEQVNRNEIRQVEFDGQHEYLTVIRKDTSRFKVIIPAPDPRLLDDLMEHDVEIVGKE — within 0.2 log units, -0.123
- HMSEQYEQIQLALKTLTQDEQDIVRLVVVEGASLRTAGKNLGVSAMTIQRRLKRALARLRDLLAS — lower, -0.839
- HMSESKYKMIKNWIKSKILDGTLVPNQKIYSESELMEIFDVSRHTVRLAIGELVSEGYLFKRQGTGTFVTQ — lower, -2.82
- HMSETTSRVLQLLGLLQARRVWTGQELADRLGVTGRSVRRDIERLRDLGYPVHASKGRDGGYQLGA — lower, -1.61
- HMSEYILATNDGEFLRITSYSKEEGGMLVWEKTSSIVSAEHKVIPYSQIINIKDRNGDVVWDKD — lower, -0.988
- HMSEYNPGIYRVTDPALNIRTGPGVEYPVVGVIKDQGSYTITEIRNKSWGRLLSGAGSTAIKHIVFT — higher, 0.214
- HMSFEITGDELILRFVKDKGGATTEQIRKHWEASNRGGKSDNNLTNLVKSGKLLRSKDPNGPGSLYTAS — within 0.2 log units, -0.0632
- HMSFESMGLTPRQADVLTLLLQGKSNKDIARRLVLSVETVKDHVQAVLRALGVSSRTQAVLAVGQMTQQ — lower, -0.584

Reference: the domain aggregation screens of Martell et al. (2025)
